According to patent US5885797:

Key:
[1] = molecular target: Myf5 (full length, mouse) (mouse) (UniProt P24699)
[2] = molecular target: Myf5 (full length, mouse) (mouse) (UniProt P24699); remark: listed apart in the source
[3] = molecular target: MyoD (full length, mouse) (mouse) (UniProt P10085)
[4] = molecular target: Myogenin (full length, mouse) (mouse) (UniProt P12979)
[5] = molecular target: Myf5 (full length, mouse) (mouse) (UniProt P24699); remark: listed apart in the source
[6] = molecular target: Myogenin (full length, mouse) (mouse) (UniProt P12979); remark: listed apart in the source
[7] = molecular target: NLSMyf5 (mouse) (UniProt P24699)
[8] = molecular target: NLSMyogenin (mouse) (UniProt P12979)
[9] = molecular target: E12
[10] = molecular target: E12; test: yeast one-hybrid, strain L40, β-galactosidase reporter
[11] = molecular target: T1, Lethal of Scute (AS-C T3) (Drosophila melanogaster (Fruit fly)) (UniProt P09774); test: as above
T1 sequence: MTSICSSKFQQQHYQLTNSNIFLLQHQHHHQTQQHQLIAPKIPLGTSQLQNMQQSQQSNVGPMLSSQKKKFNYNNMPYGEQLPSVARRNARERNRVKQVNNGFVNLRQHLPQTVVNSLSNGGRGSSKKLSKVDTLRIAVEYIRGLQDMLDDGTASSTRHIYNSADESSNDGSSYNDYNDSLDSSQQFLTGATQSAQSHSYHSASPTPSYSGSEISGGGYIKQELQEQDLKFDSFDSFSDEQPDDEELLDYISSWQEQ

[12] = molecular target: Myf5 (full length, mouse) (mouse) (UniProt P24699); test: as above
[13] = molecular target: MyoD (full length, mouse) (mouse) (UniProt P10085); test: as above
[14] = molecular target: MyoDΔC-VP16 (Mus musculus (Mouse)) (UniProt P10085); test: yeast two-hybrid, strain L40, β-galactosidase reporter
[15] = molecular target: MyoDΔN-VP16 (Mus musculus (Mouse)) (UniProt P10085); test: as above
[16] = molecular target: Myf5 (full length, mouse) (mouse) (UniProt P24699); test: yeast hybrid assay, strain L40, β-galactosidase reporter
[17] = molecular target: VP16 (Human herpesvirus 1 (strain 17) (HHV-1) (Human herpes simplex virus 1)) (UniProt P06492); test: as above
[18] = molecular target: T2, VP16-I-mfa (mouse); test: as above
T2 sequence: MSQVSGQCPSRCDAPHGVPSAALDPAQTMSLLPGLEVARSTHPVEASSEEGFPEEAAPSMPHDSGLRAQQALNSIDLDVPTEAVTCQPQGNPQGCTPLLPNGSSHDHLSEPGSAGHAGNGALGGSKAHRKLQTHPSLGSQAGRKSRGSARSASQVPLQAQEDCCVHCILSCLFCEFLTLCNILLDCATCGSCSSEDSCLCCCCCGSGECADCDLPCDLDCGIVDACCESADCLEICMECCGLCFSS

[19] = molecular target: VP16-I-mfc (mouse); test: as above
[20] = molecular target: VP16-I-mfb (mouse); test: as above
[21] = molecular target: Myf5 (full length, mouse) (mouse) (UniProt P24699); test: yeast hybrid assay, strain L40, β-galactosidase reporter; this LexA fusion is also active with VP16 alone
[22] = molecular target: T2, VP16-I-mfa (mouse); test: as above
[23] = molecular target: VP16-I-mfb (mouse); test: as above
[24] = molecular target: VP16-I-mfc (mouse); test: as above
[25] = molecular target: Myogenin (full length, mouse) (mouse) (UniProt P12979); test: yeast one-hybrid, strain L40, β-galactosidase reporter
[26] = molecular target: full length Myf5 or myogenin; test: as above
[27] = system: Myf5 (Mus musculus); test: cell_activity; settings: NIH3T3
[28] = system: MyoD (Mus musculus); test: cell_activity; settings: NIH3T3
[29] = system: Myogenin (Mus musculus); test: cell_activity; settings: NIH3T3
[30] = system: E12; test: cell_activity; settings: NIH3T3; 76.3% with I-mfa

Sequence of LexA-I-mfa (P0A7C2 other isoform, or with tags, fused parts or gaps limits assumed): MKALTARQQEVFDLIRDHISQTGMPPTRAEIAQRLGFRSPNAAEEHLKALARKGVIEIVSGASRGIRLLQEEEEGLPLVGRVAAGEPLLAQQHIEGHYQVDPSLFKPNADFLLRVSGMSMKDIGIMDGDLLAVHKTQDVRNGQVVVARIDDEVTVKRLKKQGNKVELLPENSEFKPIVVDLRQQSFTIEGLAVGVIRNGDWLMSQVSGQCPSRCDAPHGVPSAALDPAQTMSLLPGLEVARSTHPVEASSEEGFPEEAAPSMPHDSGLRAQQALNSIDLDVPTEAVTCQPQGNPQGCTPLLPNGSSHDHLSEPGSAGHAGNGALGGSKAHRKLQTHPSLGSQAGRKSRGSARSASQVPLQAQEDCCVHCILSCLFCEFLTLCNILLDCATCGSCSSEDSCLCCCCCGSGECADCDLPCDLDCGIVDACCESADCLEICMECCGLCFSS
Sequence of LexA-I-mfb (P0A7C2 other isoform, or with tags, fused parts or gaps limits assumed): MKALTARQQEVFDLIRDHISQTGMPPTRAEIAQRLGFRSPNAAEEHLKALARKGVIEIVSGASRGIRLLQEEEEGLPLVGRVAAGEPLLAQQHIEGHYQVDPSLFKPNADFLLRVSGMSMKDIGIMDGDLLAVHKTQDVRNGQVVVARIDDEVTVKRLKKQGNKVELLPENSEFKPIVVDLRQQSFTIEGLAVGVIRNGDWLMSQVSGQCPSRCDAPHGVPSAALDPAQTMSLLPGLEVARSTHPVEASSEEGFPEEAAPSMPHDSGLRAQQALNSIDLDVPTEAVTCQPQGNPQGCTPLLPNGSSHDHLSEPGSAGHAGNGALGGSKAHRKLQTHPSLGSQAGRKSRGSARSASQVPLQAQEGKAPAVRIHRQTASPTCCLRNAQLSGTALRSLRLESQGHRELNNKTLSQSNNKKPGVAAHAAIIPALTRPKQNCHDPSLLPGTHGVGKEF
Sequence of LexA-I-mfc (P0A7C2 other isoform, or with tags, fused parts or gaps limits assumed): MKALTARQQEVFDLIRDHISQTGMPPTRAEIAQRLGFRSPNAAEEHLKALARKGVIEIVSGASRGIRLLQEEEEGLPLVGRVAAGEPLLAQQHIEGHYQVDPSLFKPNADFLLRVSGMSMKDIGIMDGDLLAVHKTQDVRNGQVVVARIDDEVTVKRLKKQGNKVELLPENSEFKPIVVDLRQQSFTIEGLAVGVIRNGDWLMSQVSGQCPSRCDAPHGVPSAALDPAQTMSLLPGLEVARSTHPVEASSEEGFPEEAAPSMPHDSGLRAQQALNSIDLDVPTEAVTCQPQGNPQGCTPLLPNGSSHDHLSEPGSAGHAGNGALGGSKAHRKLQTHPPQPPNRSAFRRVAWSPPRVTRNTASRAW
Sequence of Myogenin (full length, mouse) (mouse) (P12979 whole entry): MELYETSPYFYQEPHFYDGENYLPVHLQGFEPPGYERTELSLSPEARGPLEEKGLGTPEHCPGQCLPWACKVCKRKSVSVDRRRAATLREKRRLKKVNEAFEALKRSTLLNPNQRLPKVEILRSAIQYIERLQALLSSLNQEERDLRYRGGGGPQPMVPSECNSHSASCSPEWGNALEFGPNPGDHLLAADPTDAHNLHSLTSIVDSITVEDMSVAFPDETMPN
Sequence of LexA-I-mfa (163-246) (P0A7C2 other isoform, or with tags, fused parts or gaps limits assumed): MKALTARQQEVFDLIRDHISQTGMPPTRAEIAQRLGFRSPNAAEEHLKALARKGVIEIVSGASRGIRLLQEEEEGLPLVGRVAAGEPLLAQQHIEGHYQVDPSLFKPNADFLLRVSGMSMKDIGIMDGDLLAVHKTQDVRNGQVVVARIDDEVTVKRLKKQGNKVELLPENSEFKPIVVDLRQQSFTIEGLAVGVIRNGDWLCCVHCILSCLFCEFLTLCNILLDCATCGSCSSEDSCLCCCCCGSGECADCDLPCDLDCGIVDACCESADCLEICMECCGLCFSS
Sequence of LexA-I-mfa (203-246) (P0A7C2 other isoform, or with tags, fused parts or gaps limits assumed): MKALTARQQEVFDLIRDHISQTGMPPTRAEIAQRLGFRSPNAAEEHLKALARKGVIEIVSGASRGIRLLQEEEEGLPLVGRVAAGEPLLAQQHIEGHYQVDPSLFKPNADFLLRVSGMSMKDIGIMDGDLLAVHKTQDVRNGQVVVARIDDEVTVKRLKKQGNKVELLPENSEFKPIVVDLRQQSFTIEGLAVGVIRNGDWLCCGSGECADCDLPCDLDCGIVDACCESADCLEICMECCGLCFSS
Sequence of LexA (P0A7C2 whole entry): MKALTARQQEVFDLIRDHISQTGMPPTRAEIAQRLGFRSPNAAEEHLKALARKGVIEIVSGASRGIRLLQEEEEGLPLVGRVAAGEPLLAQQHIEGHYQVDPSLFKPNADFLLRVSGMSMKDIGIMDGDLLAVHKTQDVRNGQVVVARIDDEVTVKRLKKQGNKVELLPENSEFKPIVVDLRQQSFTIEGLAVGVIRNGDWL

## HA-I-mfa
[1]
  CAT (%) +Myf5, p4R-TK-CAT reporter, NIH3T3: 2%
[2]
  Relative CAT Activity (%), p4R-TK-CAT, NIH3T3: 0.9%
[3]
  Relative CAT Activity (%), p4R-TK-CAT, NIH3T3: 10.6%
[4]
  Relative CAT Activity (%), p4R-TK-CAT, NIH3T3: 1.5%
[5]
  Relative CAT Activity (%), experiment of Table 7: 0.1%
[6]
  Relative CAT Activity (%), experiment of Table 7: 0.6%
[7]
  Relative CAT Activity (%), experiment of Table 7: 3.7%
[8]
  Relative CAT Activity (%), experiment of Table 7: 7.5%

## HA-I-mfa (1-202)
[9]
  CAT (%) +E12, p4R-TK-CAT reporter, NIH3T3: 113%
[1]
  CAT (%) +Myf5, p4R-TK-CAT reporter, NIH3T3: 5%

## HA-I-mfa (29-246)
[9]
  CAT (%) +E12, p4R-TK-CAT reporter, NIH3T3: 81%
[1]
  CAT (%) +Myf5, p4R-TK-CAT reporter, NIH3T3: 4%

## HA-I-mfa (87-202)
[9]
  CAT (%) +E12, p4R-TK-CAT reporter, NIH3T3: 89%
[1]
  CAT (%) +Myf5, p4R-TK-CAT reporter, NIH3T3: 7%

## HA-I-mfa (87-246)
[9]
  CAT (%) +E12, p4R-TK-CAT reporter, NIH3T3: 53%
[1]
  CAT (%) +Myf5, p4R-TK-CAT reporter, NIH3T3: 2%

## HA-I-mfa (163-202)
[9]
  CAT (%) +E12, p4R-TK-CAT reporter, NIH3T3: 98%
[1]
  CAT (%) +Myf5, p4R-TK-CAT reporter, NIH3T3: 44%

## HA-I-mfa (163-246)
[9]
  CAT (%) +E12, p4R-TK-CAT reporter, NIH3T3: 18%
[1]
  CAT (%) +Myf5, p4R-TK-CAT reporter, NIH3T3: 2%

## HA-I-mfa (203-246)
[9]
  CAT (%) +E12, p4R-TK-CAT reporter, NIH3T3: 93%
[1]
  CAT (%) +Myf5, p4R-TK-CAT reporter, NIH3T3: 78%

## HA-I-mfb
[9]
  CAT (%) +E12, p4R-TK-CAT reporter, NIH3T3: 100%
[1]
  CAT (%) +Myf5, p4R-TK-CAT reporter, NIH3T3: 74.5%
[2]
  Relative CAT Activity (%), p4R-TK-CAT, NIH3T3: 94.8%
[3]
  Relative CAT Activity (%), p4R-TK-CAT, NIH3T3: 96.5%
[4]
  Relative CAT Activity (%), p4R-TK-CAT, NIH3T3: 82.7%

## HA-I-mfc
[9]
  CAT (%) +E12, p4R-TK-CAT reporter, NIH3T3: 99%
[1]
  CAT (%) +Myf5, p4R-TK-CAT reporter, NIH3T3: 65%
[2]
  Relative CAT Activity (%), p4R-TK-CAT, NIH3T3: 96.4%
[3]
  Relative CAT Activity (%), p4R-TK-CAT, NIH3T3: 96.1%
[4]
  Relative CAT Activity (%), p4R-TK-CAT, NIH3T3: 68%

## LexA (from UniProt P0A7C2)
[10]
  β-galactosidase activity (arbitrary units): 2.3
[11]
  β-galactosidase activity (arbitrary units): 1.6
[12]
  β-galactosidase activity (arbitrary units): 0.9
[13]
  β-galactosidase activity (arbitrary units): 0.6
[14]
  β-galactosidase activity (arbitrary units): 0.6
[15]
  β-galactosidase activity (arbitrary units): 0.9

## LexA-I-mfa (1-202) (from UniProt P0A7C2)
[16]
  β-galactosidase activity (arbitrary units): 34.5
[17]
  β-galactosidase activity (arbitrary units): < 0.1
[18]
  β-galactosidase activity (arbitrary units): 95

## LexA-I-mfa (29-246) (from UniProt P0A7C2)
[16]
  β-galactosidase activity (arbitrary units): 84.7
[17]
  β-galactosidase activity (arbitrary units): 0.8
[18]
  β-galactosidase activity (arbitrary units): 10.1

## LexA-I-mfa (87-202) (from UniProt P0A7C2)
[16]
  β-galactosidase activity (arbitrary units): 27.6
[17]
  β-galactosidase activity (arbitrary units): < 0.1
[18]
  β-galactosidase activity (arbitrary units): 9.3

## LexA-I-mfa (87-246) (from UniProt P0A7C2)
[16]
  β-galactosidase activity (arbitrary units): 74.3
[17]
  β-galactosidase activity (arbitrary units): 0.8
[18]
  β-galactosidase activity (arbitrary units): 12.5
[19]
  β-galactosidase activity (arbitrary units): 0.7

## LexA-I-mfa (163-246) (from UniProt P0A7C2)
[16]
  β-galactosidase activity (arbitrary units): 71.3
[17]
  β-galactosidase activity (arbitrary units): 0.3
[18]
  β-galactosidase activity (arbitrary units): 3.8
[20]
  β-galactosidase activity (arbitrary units): 0.6
[19]
  β-galactosidase activity (arbitrary units): 0.2

## LexA-I-mfa (203-246) (from UniProt P0A7C2)
[17]
  β-galactosidase activity (arbitrary units): 45.8
[21]
  β-galactosidase activity (arbitrary units): 57.2
[22]
  β-galactosidase activity (arbitrary units): 95.2
[23]
  β-galactosidase activity (arbitrary units): 39.2
[24]
  β-galactosidase activity (arbitrary units): 52.3

## LexA-I-mfa (from UniProt P0A7C2)
[10]
  β-galactosidase activity (arbitrary units): 2.3
[11]
  β-galactosidase activity (arbitrary units): 2.3
[12]
  β-galactosidase activity (arbitrary units): 68.5
[13]
  fold β-galactosidase activity over the LexA-I-mfa control: 5 fold
  β-galactosidase activity (arbitrary units): 4.3
[25]
  β-galactosidase activity (arbitrary units): 63.6
[26]
  fold β-galactosidase activity over LexA-I-mfa alone: 70 to 80 fold
[14]
  β-galactosidase activity (arbitrary units): 5.6
[15]
  β-galactosidase activity (arbitrary units): 96.4
[16]
  β-galactosidase activity (arbitrary units): 66
[17]
  β-galactosidase activity (arbitrary units): 0.5
[18]
  β-galactosidase activity (arbitrary units): 6.4

## LexA-I-mfa(163-202) (from UniProt P0A7C2)
[16]
  β-galactosidase activity (arbitrary units): 57.1
[18]
  β-galactosidase activity (arbitrary units): 4.3
[20]
  β-galactosidase activity (arbitrary units): 0.2
[19]
  β-galactosidase activity (arbitrary units): < 0.1

## LexA-I-mfb (from UniProt P0A7C2)
[10]
  β-galactosidase activity (arbitrary units): 0.6
[12]
  β-galactosidase activity (arbitrary units): 0.4
[13]
  β-galactosidase activity (arbitrary units): 1.1
[16]
  β-galactosidase activity (arbitrary units): < 0.1
[17]
  β-galactosidase activity (arbitrary units): < 0.1
[18]
  β-galactosidase activity (arbitrary units): 0.2
[20]
  β-galactosidase activity (arbitrary units): < 0.1

## LexA-I-mfc (from UniProt P0A7C2)
[10]
  β-galactosidase activity (arbitrary units): 1.4
[11]
  β-galactosidase activity (arbitrary units): 0.1
[13]
  β-galactosidase activity (arbitrary units): 0.4
[17]
  β-galactosidase activity (arbitrary units): < 0.1
[18]
  β-galactosidase activity (arbitrary units): < 0.1
[19]
  β-galactosidase activity (arbitrary units): < 0.1

## MCK-CAT reporter, 3.3 kb MCK promoter
[27]; reduced to 9% by I-mfa, text names p4R-TK-CAT but Table 6 MCK-CAT
  activity: 79500 CAT units
[28]; reduced to 27% by I-mfa, text names p4R-TK-CAT but Table 6 MCK-CAT
  activity: 37200 CAT units
[29]; reduced to 2% by I-mfa, text names p4R-TK-CAT but Table 6 MCK-CAT
  activity: 33000 CAT units

## p4R-TK-CAT reporter, four oligomerized MyoD binding sites (E boxes)
[30]
  activity: 53600 CAT units
[27]; reduced to 0.9% by I-mfa
  activity: 53100 CAT units
[28]; reduced to 10.6% by I-mfa
  activity: 55400 CAT units
[29]; reduced to 1.5% by I-mfa
  activity: 17400 CAT units
